Assay [1] has as its target oriented collagen tube (Porcine Skin Collagen type I) (porcine). In words: depletion assay: tube immersed in fusion protein solution in phosphate buffer; bound = added minus amount left in the supernatant.
Assay [2] shares this target. In words: depletion assay: tube immersed in fusion protein solution in phosphate buffer; bound = added minus amount left in the supernatant; told of the other added amounts.

On to bFGF-PKD-CBD fusion protein, for which the binding amount (when 10 µg added) in assay [1] is 9 µg. In assay [2], this substance had a protein binding rate of 90%.

The values above are taken from patent publication US20180140742A1.
